Molecular target: human catalytic domain of MMP-14 (human)

Chain of human N-terminal domain of tissue inhibitor of metalloproteinase-2 (domain or fragment) (P16035 27-220): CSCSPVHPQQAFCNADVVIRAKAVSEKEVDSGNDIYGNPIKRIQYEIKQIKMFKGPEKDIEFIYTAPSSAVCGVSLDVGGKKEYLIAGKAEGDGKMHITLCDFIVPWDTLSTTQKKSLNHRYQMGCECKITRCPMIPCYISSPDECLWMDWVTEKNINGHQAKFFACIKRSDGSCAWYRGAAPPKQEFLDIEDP

IC50 of inhibition of hydrolysis of the FRET peptide substrate M-2350 (1 nM human cdMMP-14, 1 μM substrate): 3 nM
Substance: human N-terminal domain of tissue inhibitor of metalloproteinase-2 (domain or fragment)

— article PMC6047671
